Measured values taken from the DeepSol protein solubility set.

Assay: soluble on expression in E. coli; label from the status in PepcDB or PDB records

| Sequence | soluble on expression in E. coli |
| --- | --- |
| MGSDKIHHHHHHMSHLALQPGFDFQQAGKEVLEIEREGLAELDQYINQHFTLACEKMFNCTGKVVVMGMGKSGHIGRKMAATFASTGTSSFFVHPGEAAHGDLGMVTPQDVVIAISNSGESSEIAALIPVLKRLHVPLICITGRPESSMARAADVHLCVKVPKEACPLGLAPTSSTTATLVMGDALAVALLKARGFTAEDFALSHPGGALGRKLLLRVSDIMHTGDEIPHVNKHATLRDALLEITRKNLGMTVICDESMKIDGIFTDGDLRRVFDMGGDMRQLGIAEVMTPGGIRVRPGILAVDALNLMQSRHITSVLVADGDQLLGVLHMHDLLRAGVV | not soluble |
| MGSDKIHHHHHHMSHQSTHPHHTWVQSHHPVHLETKSPPHKEPMFYYFAYGSCMCPVDLKRSLGENTHPYIIGPGVLKGYRLGFYLYLPSRKCGVLDIVKDPKASVKGVLYQLPLRLSEYLDQREGVSQNLYRHESVEIHSHSRVYQDVRTYVVVNKSEEEVAPNDWYFNVVLRGAVTCGLPEEYCWHLFNHMHKLQQRHQEQKFRRSA | not soluble |
| MGSDKIHHHHHHMSIAHQNAHTIIRDILSKQHIERVWFVGCGGSLTGFWPGKYFLDCEAKKLAVGYVTSNEFVHATPNALGKNSVVILASQQGNTAETVEAARIARQKGAATIGLVYTPGTPLCEHSDYTIKYCWARYPETVDPTQQKAAYSLWLALEVLAQTEGYAHYDEMVSAFASFESVVRGAQQQVQADARHFAEAWKTEKVIYMMGSGPSFGAAHQESICILLEMQWINSASIHSGEYFHGPFEITETGTPFILLKSSGRTRPLDDRAIRFIERYQGKLQIIDVEKVGINALHASVREYFCGLLHNCVLDVYNLALATARNHPLTTRRYMWKVEY | not soluble |
| MGSDKIHHHHHHMSIQSLLDYISVTPDIRQQGKVKHKLSAILFLTVCAVIAGADEWQEIEDFGHERLEWLKKYGDFDNGIPVDDTIARVVSNIDSLAFEKMFIEWMQECHEITDGEIIAIDGKTIRGSFDKGKRKGAIHMVSAFSNENGVVLGQVKTEAKSNEITAIPELLNLLYLKKNLITIDAMGCQKDIASKIKDKKADYLLAVKGNQGKLHHAFEEKFPVNVFSNYKGDSFSTQEISHGRKETRLHIVSNVTPELL | not soluble |
| MGSDKIHHHHHHMSISPNPNIAEIAALFGETSRAAILTSLLDGRLHTASDLAYRAGITPQTASFHLGKLAEGGLVSVEKHGRHRYYQLANGEVASLLESFLVISPQPEVKSLKQSAQMVMLQKARTCYDHLAGKLGVGITDSMLDSGYLKKDGKEFVLTEAGVQFVINFGLDLESIKKKRRSLSHACLDWSERSYHLAGALGNQLMQHFFDLGWITPLPGIRAVKVTDQGKAGFKQYFNISL | not soluble |
| MGSDKIHHHHHHMSKSEQISHMTDVMAKFVGYTGKVLPDDVTAKLEDLHKKETSKLADVIFTTMIENQRLAKELDRPSCQDTGVIQFLVECGTNFPLIGELEALLREAVIKATVDSPLRHNSVETFDEYNTGKNVGKGTPTVFWEIVPNSDQCSIYTYMAGGGCSLPGKAMVLMPGAGYEGVTRFVLDVMTSYGLNACPPLLVGVGVATSVETAALLSKKALMRPIGSHNENERAASLEKMLEDGINKIGLGPQGMSGNTSVMGVNIENTARHPSTIGVAVNVGCWSHRKGHIVFDAALNYTITSHSGVNF | not soluble |
| MGSDKIHHHHHHMSKWLNVGKIVNTHGVRGEVRVLSTTDFEDDRFSSGKTLYVMRPNQNERVAVTVASHRKHKNFDLLCFEGYPSINDVEAFKGGRLQVPIEDRPELGEGEFFYHEIIGCSVVTIAGEELGKVKEILSPGANDVWVVQCRRGGKDLLIPYIEQVVKQVDLEKQQITIEPMEGLLE | not soluble |
| MGSDKIHHHHHHMSLIHLQADHIRPLVYLHGKVDDHEVAFLEHLNGPPKNAVRVGNTVTFIEHDQTAYSVRAERIQGVLPPAFAGVISDLESGYQFVLGGRSRLAGRPSQLVRIIPNDDNRYSYQVWLDMDTYLPLRYDMLNLEKQLLEQVLVVELIVLDDAPAILREAYKQDWPEIMPQPQREQADNWQFKWLPQGFKILVKDNHRLIGSHEAVEYIALSDGLVNISVYVARAGETALPDELMTRNGLSLAAERVGNAEVVAVGKVPAETLSRIAKSITIE | not soluble |
